Measurements: US20090047703A1

Target: HERG-1b (human) (UniProt Q12809)
Test: cell-based or functional assay

HERG-1a N-Terminal Domain fused to eCFP
deactivation kinetics, two-electrode voltage clamp in Xenopus oocytes: 10 fold
